Results: US20210380703A1 (RIGEL PHARMACEUTICALS, published 2021)
Where a chain is given by its changes, count along the chain named.

B1: 374_E09 (antibody, V domains shown)
VH: EVQLLESGGGLVQPGGSLRLSCAASGFTFSDYSMNWVRQAPGKGLEWVSGINYNGGYKGYADSVKGRFTISRDNSKNTLYLQMNSLRAEDTAVYYCARSATWHDTHLDYWGQGTLVTVSS
VL: DIQMTQSPSSLSASVGDRVTITCRASQSIVTYLNWYQQKPGKAPKLVIYAATSRASGVPSRFSGSGSGTDFTLTISSLQPEDFATYYCQQSYDSPLTFGGGTKVEIK
notes: VH/VL only
B2: 374_F11 (antibody, V domains shown)
VH: B1 VH with S30D, D31S, G50N, K58T, T101N, H106A
VL: B1 VL with V30L, T31S, V47L, A51V, R54L, D93E
notes: VH/VL only
B3: 374_E11 (antibody, V domains shown)
VH: B1 VH with D31S, S33G, G50N, K58T, G59S, T101N, H106A
VL: B1 VL
notes: VH/VL only
B4: 374_H07 (antibody, V domains shown)
VH: B1 VH with S30D, D31S, S33G, S49A, G50N, K58T, T101N, H106A
VL: B1 VL with V30L, V47L, D93E, S94T
notes: VH/VL only
B5: 375_E01 (antibody, V domains shown)
VH: B1 VH with D31S, G55S, G59S, T101N, H106A
VL: B1 VL with V30L, Y92D
notes: VH/VL only
B6: 375_D12 (antibody, V domains shown)
VH: B1 VH with S30D, D31S, S33G, G50S, G55S, K58T, G59S, T101N, H106A
VL: B1 VL with V30L, L33V, D93E, S94T
notes: VH/VL only
B7: 374_H06 (antibody, V domains shown)
VH: B1 VH with D31S, S33G, G50N, K58T, T101N, H106A
VL: B1 VL with T31S, L33V, D93N, S94L
notes: VH/VL only
B8: 374_H09 (antibody, V domains shown)
VH: B1 VH with D31S, S49A, G50N, G55S, G59S, T101N, H106A
VL: B1 VL with V30L, T31S, A51V, R54L, S94L
notes: VH/VL only
B9: 374_H03 (antibody, V domains shown)
VH: B1 VH with D31S, S33G, G55S, G59S, T101N, H106A
VL: B1 VL with V30L, T31S, L33V
notes: VH/VL only
B10: 375_D07 (antibody, V domains shown)
VH: B1 VH with D31S, S33G, S49A, G50N, G55S, K58T, T101N, H106A
VL: B1 VL with V30I, V47L, S94T
notes: VH/VL only
B11: 374_G07 (antibody, V domains shown)
VH: B1 VH with D31S, G55S, G59S, T101N, H106A
VL: B1 VL with V30I, T31S, V47L
notes: VH/VL only
B12: 375_D05 (antibody, V domains shown)
VH: B1 VH with D31S, S49A, G50S, G55S, K58T, G59S, T101N
VL: B1 VL with T31S, V47L, R54L, A55H, S94T
notes: VH/VL only
B13: 375_D08 (antibody, V domains shown)
VH: B1 VH with S33G, G55S, T101N, H106A
VL: B1 VL with V30I, V47L, D93S, S94T
notes: VH/VL only
B14: 375_A05 (antibody, V domains shown)
VH: B1 VH with D31S, S33G, S49A, G50N, T101N, H106A
VL: B1 VL with V30L, T31S, V47L, S94L
notes: VH/VL only
B15: 374_F04 (antibody, V domains shown)
VH: B1 VH with D31S, S33G, G55S, G59S, T101N, H106A
VL: B1 VL with V30L, L33V, V47L, D93N
notes: VH/VL only
B16: 375_A02 (antibody, V domains shown)
VH: B1 VH with D31S, S49A, G55S, K58T, G59S
VL: not shown
notes: VH/VL only
B17: 375_A06 (antibody, V domains shown)
VH: B1 VH with D31S, S49A, G55S
VL: B1 VL with V30L, L33V, V47L, T52S, R54L, A55Q, D93S, S94T
notes: VH/VL only
B18: 375_C06 (antibody, V domains shown)
VH: B1 VH with S30D, S33G, N35H, S49A, G50S, G55S, K58T, G59S, T101N, H106A
VL: B1 VL with V30L, L33V, A51T
notes: VH/VL only
B19: 374_F01 (antibody, V domains shown)
VH: B1 VH with S30D, D31S, G50N, K58T, T101N, H106A
VL: B1 VL with V30L, T31S, L33V, A55H, D93E, S94N
notes: VH/VL only
B20: 375_B04 (antibody, V domains shown)
VH: B1 VH with S30D, D31S, S49A, G50N, K58T
VL: B1 VL with V30L, V47L, S94N
notes: VH/VL only
B21: 374_F10 (antibody, V domains shown)
VH: B1 VH with D31S, K58T, G59S, T101N, H106A
VL: B1 VL with V30L, T31S, S94N
notes: VH/VL only
B22: 374_G04 (antibody, V domains shown)
VH: B1 VH with D31S, S49A, K58T, T101N, H106A
VL: B1 VL with V30L, R54L, S94N
notes: VH/VL only
B23: 375_C12 (antibody, V domains shown)
VH: B1 VH with D31S, S49A, G50N, K58T
VL: B1 VL with V30L, V47L, S94L
notes: VH/VL only
B24: 374_H08 (antibody, V domains shown)
VH: B1 VH with S30D, D31S, K58T
VL: B1 VL with V30L, T31S, V47L, R54L, A55H, D93E, S94N
notes: VH/VL only
B25: 374_G06 (antibody, V domains shown)
VH: B1 VH with D31S, S33G, N35H, S49A, G50S, K58T, G59S, T101N, H106A
VL: B1 VL with V30L, T31S, V47L, A51V, S94L
notes: VH/VL only
B26: 374_H04 (antibody, V domains shown)
VH: B1 VH with S30D, D31S, G55S, K58T, G59S, T101N, H106A
VL: B1 VL with V30L, V47L, S94N
notes: VH/VL only

Columns and labels:
human ACVR2A = human ACVR2A (human, UniProt P27037 20-135, limits assumed); assay: ELISA
In short: (§1)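 mAb binding by ELISA; antigens: hu ACVR2A, mu ACVR2A; pos ctrl biotinylated goat anti-hu kappa LC; neg ctrl hu Fc.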

mouse ACVR2A = mouse ACVR2A (mouse, UniProt P27038 20-135, limits assumed); assay: ELISA
In short: as §1

[1] = target: T1, biotinylated goat anti-human kappa light chain; assay: ELISA; positive control
T1 construct: Positive control of the ELISA
In short: as §1
Also: test concentration or dose not given here.

mouse ACVR2A, sequence (P27038 20-135 limits assumed): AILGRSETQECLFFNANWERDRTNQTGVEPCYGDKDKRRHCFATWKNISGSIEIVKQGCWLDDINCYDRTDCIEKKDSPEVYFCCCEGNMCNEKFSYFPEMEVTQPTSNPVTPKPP
human ACVR2A, sequence (P27037 20-135 limits assumed): as the sequence (P27038 20-135 limits assumed) above, with R20K, I73V counted along it

optical density (human ACVR2A) [OD]	optical density (mouse ACVR2A) [OD]	optical density [1] [OD]	Binder
3.67	3.58	3.16	B1
3.66	3.61	3.15	B2
3.61	3.59	3.34	B3
3.24	3.25	2.97	B4
3.16	3.63	3.11	B5
3.24	3.16	3.23	B6
3.3	3.26	3.08	B7
3.25	3.26	3.04	B8
3.27	3.27	3.06	B9
3.56	3.63	3.25	B10
3.63	3.72	3.26	B11
3.46	3.61	3.21	B12
3.29	3.4	3.3	B13
3.72	3.69	3.12	B14
3.58	3.65	3.23	B15
2.98	3.18	3.07	B16
3.65	3.71	3.11	B17
2.65	3.21	3.29	B18
3.29	3.6	3.03	B19
3.69	3.73	3.26	B20
3.21	3.45	3.28	B21
2.1	2.32	3.02	B22
3.66	3.33	3.27	B23
3.31	3.27	3.09	B24
3.26	3.42	3.29	B25
3.28	3.31	3.19	B26
